Results reported in patent US20200024330A1.

Experiments:
Experiment in all cases: cell-based or functional assay
[1] = molecular target: HIV-1 92RW020 envelope glycoprotein (Env) (HIV-1)
[2] = molecular target: HIV-1 97ZA012 envelope glycoprotein (Env) on pseudovirus (HIV-1)
[3] = molecular target: HIV-1 APV-13 envelope protein (Env) on pseudovirus (HIV-1)
[4] = molecular target: HIV-1 Env of isolate MGRM-D-001 (clade D) (HIV-1)
[5] = molecular target: HIV-1 Env of isolate MGRM-D-005 (clade D) (HIV-1)
[6] = molecular target: HIV-1 Env of isolate MGRM-D-026 (clade D) (HIV-1)
[7] = molecular target: HIV-1 Env of isolate MGRM-G-016 (clade G pseudovirus) (HIV-1)
[8] = molecular target: HIV-1 Env of pseudovirus APV_17, clade B (HIV-1)
[9] = molecular target: HIV-1 Env of pseudovirus NL43, clade B (HIV-1)
[10] = molecular target: HIV-1 Env of pseudovirus VLGCB3, clade B (HIV-1)
[11] = molecular target: HIV-1 JR-CSF envelope protein (Env) on pseudovirus (HIV-1) (UniProt P20871)
[12] = molecular target: HIV-1 MGRM-A-001 envelope glycoprotein (Env) (HIV-1)
[13] = molecular target: HIV-1 MGRM-A-002 envelope glycoprotein (Env) (HIV-1)
[14] = molecular target: HIV-1 MGRM-A-004 envelope glycoprotein (Env) (HIV-1)
[15] = molecular target: HIV-1 MGRM-A-007 envelope glycoprotein (Env) (HIV-1)
[16] = molecular target: HIV-1 MGRM-A-009 envelope glycoprotein (Env) (HIV-1)
[17] = molecular target: HIV-1 MGRM-A-012 envelope glycoprotein (Env) (HIV-1)
[18] = molecular target: HIV-1 MGRM-C-007 Env (HIV-1)
[19] = molecular target: HIV-1 MGRM-C-025 Env (HIV-1)
[20] = molecular target: HIV-1 MGRM-F1-020 Env (pseudovirus) (HIV-1)
[21] = molecular target: HIV-1 MGRM-F1-022 Env (pseudovirus) (HIV-1)
[22] = molecular target: HIV-1 Env of isolate 92UG001 (HIV-1)
[23] = molecular target: HIV-1 Env of isolate 93MW959 (HIV-1)
[24] = molecular target: HIV-1 Env of isolate MGRM-A-007 (clade A), on pseudovirus (HIV-1)
[25] = molecular target: HIV-1 Env of isolate MGRM-AE-001 (CRF01_AE), on pseudovirus (HIV-1)
[26] = molecular target: HIV-1 Env of isolate MGRM-AE-007 (CRF01_AE), on pseudovirus (HIV-1)
[27] = molecular target: HIV-1 Env of isolate MGRM-AG-001 (CRF_AG), on pseudovirus (HIV-1)
[28] = molecular target: HIV-1 Env of isolate MGRM-C-012 (HIV-1)
[29] = molecular target: HIV-1 Env of isolate MGRM-F1-012 (subtype F), on pseudovirus (HIV-1)
[30] = molecular target: HIV-1 Env of isolate MGRM-F1-023 (subtype F), on pseudovirus (HIV-1)
[31] = molecular target: HIV-1 Env of isolate MGRM-G-025 (HIV-1)
[32] = molecular target: HIV-1 JR-CSF Env G471A (HIV-1 (isolate JR-CSF)) (UniProt P20871)
[33] = molecular target: HIV-1 JR-CSF Env R476A (HIV-1 (isolate JR-CSF)) (UniProt P20871)

Chain of 1443_C16 (PG16) (TCN-116) (antibody) (VH): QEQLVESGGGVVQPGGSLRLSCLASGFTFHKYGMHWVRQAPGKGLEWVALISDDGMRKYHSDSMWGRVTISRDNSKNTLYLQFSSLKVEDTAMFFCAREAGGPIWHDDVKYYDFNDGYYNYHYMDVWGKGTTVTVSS
Chain of 1443_C16 (PG16) (TCN-116) (antibody) (VL): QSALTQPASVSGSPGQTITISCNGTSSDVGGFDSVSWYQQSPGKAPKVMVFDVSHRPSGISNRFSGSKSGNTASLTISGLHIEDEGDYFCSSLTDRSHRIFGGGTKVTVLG

| Substance | IC50 (µg/ml), pseudovirus neutralization [1] [µg/mL] | IC50 (µg/ml), pseudovirus neutralization [2] [µg/mL] | neutralization IC50 [3] [µg/mL] | IC50 (µg/ml), pseudovirus neutralization [4] [µg/mL] | IC50 (µg/ml), pseudovirus neutralization [5] [µg/mL] | IC50 (µg/ml), pseudovirus neutralization [6] [µg/mL] | IC50 (µg/ml), pseudovirus neutralization [7] [µg/mL] | IC50 (µg/ml), pseudovirus neutralization [8] [µg/mL] | IC50 (µg/ml), pseudovirus neutralization [9] [µg/mL] | IC50 (µg/ml), pseudovirus neutralization [10] [µg/mL] | neutralization IC50 [11] [µg/mL] | IC50 (µg/ml), pseudovirus neutralization [12] [µg/mL] | IC50 (µg/ml), pseudovirus neutralization [13] [µg/mL] | IC50 (µg/ml), pseudovirus neutralization [14] [µg/mL] | IC50 (µg/ml), pseudovirus neutralization [15] [µg/mL] | IC50 (µg/ml), pseudovirus neutralization [16] [µg/mL] | IC50 (µg/ml), pseudovirus neutralization [17] [µg/mL] | IC50 [18] [µg/mL] | IC50 [19] [µg/mL] | IC50 (µg/ml), pseudovirus neutralization [20] [µg/mL] | further results |
| --- | --- | --- | --- | --- | --- | --- | --- | --- | --- | --- | --- | --- | --- | --- | --- | --- | --- | --- | --- | --- | --- |
| b12 (antibody) | > 50 | > 50 | > 25 | > 50 | > 50 | 1.55 | > 50 | > 50 | 0.17 | 0.15 | 0.16 | > 50 | > 50 | > 50 | > 50 | 4.34 | > 50 | > 50 | > 50 | > 50 | IC50 (µg/ml), pseudovirus neutralization [21]: > 50 µg/mL |
| 1495_C14 (PGC14) (antibody) | 46 | > 50 | > 50 | > 50 | > 50 | > 50 | > 50 | > 50 | 40 | 21 | > 50 | > 50 | > 50 | > 50 | > 50 | > 50 | > 50 | > 50 | > 50 | > 50 | IC50 (µg/ml), pseudovirus neutralization [21]: > 50 µg/mL |
| 5147_N06 (PGT-130) (antibody) | – | – | – | – | – | – | – | – | – | – | – | – | – | – | – | – | – | – | – | – | IC50 [22]: > 50 µg/mL; IC50 [23]: 8.55 µg/mL; IC50, single-round pseudovirus neutralization [24]: > 50 µg/mL; IC50, single-round pseudovirus neutralization [25]: 1 µg/mL; IC50, single-round pseudovirus neutralization [26]: 0.083 µg/mL; IC50, single-round pseudovirus neutralization [27]: > 50 µg/mL; IC50 [28]: > 50 µg/mL; neutralization IC50 [4]: > 10 µg/mL; neutralization IC80 [4]: > 10 µg/mL; neutralization IC90 [4]: > 10 µg/mL; neutralization IC95 [4]: > 10 µg/mL; IC50, pseudovirus neutralization [29]: > 50 µg/mL; IC50, pseudovirus neutralization [30]: 0.05 µg/mL; IC50, pseudovirus neutralization [31]: 8.45 µg/mL; Fold IC50 increase relative to wild-type [32]: 0.8 fold; Fold IC50 increase relative to wild-type [33]: 1.3 fold |
| 2F5 (antibody) | 3.36 | > 50 | 2.8 | 0.63 | > 50 | 4.37 | 16.8 | 4.61 | 2.02 | > 50 | 3.36 | > 50 | > 50 | 7.49 | 16.3 | 9.4 | 2.36 | > 50 | > 50 | 0.59 | IC50 (µg/ml), pseudovirus neutralization [21]: 1.26 µg/mL |
| 2G12 (antibody) | 0.48 | > 50 | 23.9 | > 50 | 25.7 | > 50 | > 50 | > 50 | 0.49 | 7.9 | 0.66 | > 50 | > 50 | > 50 | > 50 | 7.47 | > 50 | > 50 | > 50 | > 50 | IC50 (µg/ml), pseudovirus neutralization [21]: > 50 µg/mL |
| 1443_C16 (PG16) (TCN-116) (antibody) | 0.28 | 2.55 | > 50 | > 50 | 19.7 | > 50 | 11.3 | 24.8 | 0.02 | 0.4 | < 0.0025 | > 50 | 0.004 | 0.04 | 5.91 | 0.01 | 20.7 | 0.05 | 0.04 | 4.35 | IC50 (µg/ml), pseudovirus neutralization [21]: 0.08 µg/mL |
| 4E10 (antibody) | 4.54 | 4.7 | 3.8 | 1.84 | 35.2 | 2.95 | 1.02 | 10.5 | 4.67 | 5.76 | 6 | 15.1 | 6.45 | 3.14 | 1.82 | 12 | 4.27 | 5.84 | 5.58 | 0.66 | IC50 (µg/ml), pseudovirus neutralization [21]: 1.01 µg/mL |
